PMC2700308 (Biochemistry, 2009)
Square brackets hold non-standard residues; d marks the D form. Ends that are not written are not given here. sY = N[C@@H](Cc1ccc(OS(=O)(=O)O)cc1)C(=O)O

Target: Full-length gp120 from the subtype B YU2 HIV-1 strain (HIV-1, subtype B, strain YU2, UniProt P35961 32-498)
Experiment: ITC

Question: For MDYQVSSPI[sY]DIN[sY]YTSEPSQK [S22 peptide, 22 amino acid tyrosine-sulfated peptide corresponding to the CCR5 N-terminus], which Kd is on record?
Answer: Its Kd is at least 1000 µM.
